Laboratory results: US7026443

target: HLA-A*1101 (human); assay: competitive inhibition of 125I-labelled standard peptide binding to purified HLA, gel filtration; conditions: not given

| Binder | binding affinity ratio (IC50 of standard peptide / IC50 of test peptide) |
| --- | --- |
| LILALLRYK (modifications not checked) [HPV18 E1 position 281 peptide …] | 0.18 |
| NSGQKKAKR (modifications not checked) [HPV18 E1 position 119 peptide …] | 0.0002 |
| NIHPAKDNR (modifications not checked) [HPV18 E1 position 574 peptide …] | 0.0002 |
| KSFLKGTPK (modifications not checked) [HPV18 E1 position 468 peptide …] | 0.0015 |
| LTTNIHPAK (modifications not checked) [HPV18 E1 position 571 peptide …] | 0.12 |
| KLRAGQNHR (modifications not checked) [HPV18 E1 position 647 peptide …] | 0.0013 |
| WTYFDTYMR (modifications not checked) [HPV18 E1 position 536 peptide …] | 0.012 |
| QVLHVLKRK (modifications not checked) [HPV18 E1 position 80 peptide …] | 0.002 |

target: HLA-A*0301 (human); assay: as above; conditions: not given

| Binder | binding affinity ratio (IC50 of standard peptide / IC50 of test peptide) |
| --- | --- |
| LILALLRYK (modifications not checked) [HPV18 E1 position 281 peptide …] | 0.27 |
| NSGQKKAKR (modifications not checked) [HPV18 E1 position 119 peptide …] | 0.0005 |
| NIHPAKDNR (modifications not checked) [HPV18 E1 position 574 peptide …] | 0.0005 |
| KSFLKGTPK (modifications not checked) [HPV18 E1 position 468 peptide …] | 0.0003 |
| LTTNIHPAK (modifications not checked) [HPV18 E1 position 571 peptide …] | 0.091 |
| KLRAGQNHR (modifications not checked) [HPV18 E1 position 647 peptide …] | 0.3 |
| WTYFDTYMR (modifications not checked) [HPV18 E1 position 536 peptide …] | 0.0005 |
| QVLHVLKRK (modifications not checked) [HPV18 E1 position 80 peptide …] | 0.0028 |

target: HLA-A*1101 (human); assay: competition with 125I-labelled standard probe peptide for purified HLA-A*1101, gel filtration; conditions: not given

| Binder | binding affinity ratio (IC50 of standard peptide / IC50 of test peptide) | relative binding ratio (IC50 of standard peptide / IC50 of test peptide) |
| --- | --- | --- |
| NIHPAKDNR (modifications not checked) [HPV18 E1 574 …] | 0.0002 | – |
| NSGQKKAKR (modifications not checked) [HPV18 E1 119 …] | 0.0002 | – |
| EGTGCNGWFY (modifications not checked) [HPV18 E1 10-19 peptide …] | – | 0.0002 |
| LILALLRYK (modifications not checked) [HPV18 E1 281 …] | 0.18 | – |
| LTTNIHPAK (modifications not checked) [HPV18 E1 571 …] | 0.12 | – |

target: HLA-A*1101 (human); assay: competition with 125I-labelled standard peptide for purified HLA-A*1101, gel filtration; conditions: not given

| Binder | binding affinity ratio (IC50 of standard peptide / IC50 of test peptide) |
| --- | --- |
| KSFLKGTPK (modifications not checked) [HPV18 E1 position 468 peptide …] | 0.0015 |
| KLRAGQNHR (modifications not checked) [HPV18 E1 position 647 peptide …] | 0.0013 |

target: HLA-B*0702 (human); assay: competition with 125I-labelled standard peptide for purified HLA, gel filtration; conditions: not given

| Binder | binding affinity ratio (IC50 of standard peptide / IC50 of test peptide) |
| --- | --- |
| NPAEKLRHL (modifications not checked) [HPV18 E6 peptide … (position 113, 9 amino acids)] | 0.011 |
| KPLNPAEKL (modifications not checked) [HPV18 E6 peptide … (position 110, 9 amino acids)] | 0.035 |
| DPTRRPYKL (modifications not checked) [HPV18 E6 peptide … (position 6, 9 amino acids)] | 0.0001 |
| EPQRHTMLCM (modifications not checked) [HPV18 E7 peptide … (position 55, 10 amino acids)] | 0.0026 |
| GPKATLQDIV (modifications not checked) [HPV18 E7 peptide … (position 3, 10 amino acids)] | 0.0001 |
| EPQNEIPVDL (modifications not checked) [HPV18 E7 peptide … (position 16, 10 amino acids)] | 0.0001 |
| IPHAACHKCI (modifications not checked) [HPV18 E6 peptide … (position 60, 10 amino acids)] | 0.0065 |
| PPKLRSTAA (modifications not checked) [HPV31 E1 289 peptide … (B07 supermotif peptide)] | 0.0014 |

target: HLA-B*5401 (human); assay: as above; conditions: not given

| Binder | binding affinity ratio (IC50 of standard peptide / IC50 of test peptide) |
| --- | --- |
| NPAEKLRHL (modifications not checked) [HPV18 E6 peptide … (position 113, 9 amino acids)] | 0.0002 |
| KPLNPAEKL (modifications not checked) [HPV18 E6 peptide … (position 110, 9 amino acids)] | 0.0002 |
| DPTRRPYKL (modifications not checked) [HPV18 E6 peptide … (position 6, 9 amino acids)] | 0.0002 |
| EPQRHTMLCM (modifications not checked) [HPV18 E7 peptide … (position 55, 10 amino acids)] | 0.0001 |
| GPKATLQDIV (modifications not checked) [HPV18 E7 peptide … (position 3, 10 amino acids)] | 0.0001 |
| EPQNEIPVDL (modifications not checked) [HPV18 E7 peptide … (position 16, 10 amino acids)] | 0.0001 |
| IPHAACHKCI (modifications not checked) [HPV18 E6 peptide … (position 60, 10 amino acids)] | 0.0005 |
| GPKATLQDI (modifications not checked) [HPV18 E7 peptide … (position 3, 9 amino acids)] | 0.0002 |

target: HLA-B*5101 (human); assay: as above; conditions: not given

| Binder | binding affinity ratio (IC50 of standard peptide / IC50 of test peptide) |
| --- | --- |
| NPAEKLRHL (modifications not checked) [HPV18 E6 peptide … (position 113, 9 amino acids)] | 0.0001 |
| KPLNPAEKL (modifications not checked) [HPV18 E6 peptide … (position 110, 9 amino acids)] | 0.0001 |
| DPTRRPYKL (modifications not checked) [HPV18 E6 peptide … (position 6, 9 amino acids)] | 0.0001 |
| EPQRHTMLCM (modifications not checked) [HPV18 E7 peptide … (position 55, 10 amino acids)] | 0.0003 |
| GPKATLQDIV (modifications not checked) [HPV18 E7 peptide … (position 3, 10 amino acids)] | 0.0001 |
| EPQNEIPVDL (modifications not checked) [HPV18 E7 peptide … (position 16, 10 amino acids)] | 0.0001 |
| IPHAACHKCI (modifications not checked) [HPV18 E6 peptide … (position 60, 10 amino acids)] | 0.0046 |
| GPKATLQDI (modifications not checked) [HPV18 E7 peptide … (position 3, 9 amino acids)] | 0.0001 |

target: HLA-B*5301 (human); assay: as above; conditions: not given

| Binder | binding affinity ratio (IC50 of standard peptide / IC50 of test peptide) |
| --- | --- |
| NPAEKLRHL (modifications not checked) [HPV18 E6 peptide … (position 113, 9 amino acids)] | 0.0001 |
| KPLNPAEKL (modifications not checked) [HPV18 E6 peptide … (position 110, 9 amino acids)] | 0.0001 |
| DPTRRPYKL (modifications not checked) [HPV18 E6 peptide … (position 6, 9 amino acids)] | 0.0001 |
| EPQRHTMLCM (modifications not checked) [HPV18 E7 peptide … (position 55, 10 amino acids)] | 0.0043 |
| GPKATLQDIV (modifications not checked) [HPV18 E7 peptide … (position 3, 10 amino acids)] | 0.0001 |
| EPQNEIPVDL (modifications not checked) [HPV18 E7 peptide … (position 16, 10 amino acids)] | 0.0001 |
| IPHAACHKCI (modifications not checked) [HPV18 E6 peptide … (position 60, 10 amino acids)] | 0.0001 |
| GPKATLQDI (modifications not checked) [HPV18 E7 peptide … (position 3, 9 amino acids)] | 0.0001 |

target: HLA-B*3501 (human); assay: as above; conditions: not given

| Binder | binding affinity ratio (IC50 of standard peptide / IC50 of test peptide) |
| --- | --- |
| NPAEKLRHL (modifications not checked) [HPV18 E6 peptide … (position 113, 9 amino acids)] | 0.0001 |
| KPLNPAEKL (modifications not checked) [HPV18 E6 peptide … (position 110, 9 amino acids)] | 0.0001 |
| DPTRRPYKL (modifications not checked) [HPV18 E6 peptide … (position 6, 9 amino acids)] | 0.0001 |
| EPQRHTMLCM (modifications not checked) [HPV18 E7 peptide … (position 55, 10 amino acids)] | 0.0002 |
| GPKATLQDIV (modifications not checked) [HPV18 E7 peptide … (position 3, 10 amino acids)] | 0.0001 |
| EPQNEIPVDL (modifications not checked) [HPV18 E7 peptide … (position 16, 10 amino acids)] | 0.0005 |
| IPHAACHKCI (modifications not checked) [HPV18 E6 peptide … (position 60, 10 amino acids)] | 0.0001 |
| GPKATLQDI (modifications not checked) [HPV18 E7 peptide … (position 3, 9 amino acids)] | 0.0001 |

target: HLA-A*0301 (human); assay: competitive inhibition of 125I-labelled standard peptide binding to purified HLA-A*0301, gel filtration; conditions: remark: other sources report otherwise

| Binder | relative binding ratio (IC50 of standard peptide / IC50 of test peptide) (ratio to standard peptide) |
| --- | --- |
| DLQPETTDLY (modifications not checked) [HPV16 E7 14 …] | 0.0002 |

target: HLA-A*0301 (human); assay: competition with 125I-labeled standard peptide for purified HLA-A*0301, gel filtration; conditions: not given

| Binder | relative binding ratio (IC50 of standard peptide / IC50 of test peptide) | binding affinity ratio relative to standard peptide (IC50 standard / IC50 test) |
| --- | --- | --- |
| RIKLVVESSA (modifications not checked) [HPV18 E7 71-80 peptide …] | 0.0005 | – |
| TMLCMCCK (modifications not checked) [HPV18 E7 60-67 peptide TMLCMCCK] | 0.024 | – |
| LSFVCPWCA (modifications not checked) [HPV18 E7 94-102 peptide …] | 0.0005 | – |
| QLFLNTLSF (modifications not checked) [HPV18 E7 88-96 peptide …] | 0.0005 | – |
| QVLHVLKRK (modifications not checked) [HPV18 E1 80-88 peptide …] | – | 0.0028 |

target: HLA-A*0101 (human); assay: competition with 125I-labelled standard peptide 944.02 ([..]) for purified HLA-A*0101, gel filtration; conditions: not given

| Binder | binding affinity ratio (IC50 of standard peptide / IC50 of test peptide) |
| --- | --- |
| CIVYRDGNPY (modifications not checked) [HPV16 E6 58 …] | 0.0015 |
| GTTLEQQY (modifications not checked) [HPV16 E6 92 GTTLEQQY] | 0.0006 |
| DTPTLHEY (modifications not checked) [HPV16 E7 4 DTPTLHEY] | 0.0002 |
| AVCDKCLKFY (modifications not checked) [HPV16 E6 68 …] | 0.0095 |

same assay, conditions: remark: other sources report otherwise

| Binder | binding affinity ratio (IC50 of standard peptide / IC50 of test peptide) |
| --- | --- |
| DLQPETTDLY (modifications not checked) [HPV16 E7 14 …] | 0.002 |
